Test [1] has as its target ACE2 (angiotensin-converting enzyme II receptor), full length, expressed on U937 cells (human) (UniProt Q9BYF1). Kind of test: adhesion frequency assay (micropipette).
The target in test [2] is Fc-tagged ACE2 recombinant protein (human) (UniProt Q9BYF1). Kind of test: BLI. On the technique in general: BLI is a label-free optical method that tracks binding on a fibre tip over time.

Substance “SARS2-RBD^WT (receptor-binding domain of the SARS-CoV-2 spike, residues 333-527) (domain or fragment; other documents disagree on this pair)” had a koff in test [1] of 0.0569 s⁻¹. In test [2], the Kd turned out to be 66.7 nM, the koff was determined as 0.0121 s⁻¹ and the kon is 181000 M⁻¹ s⁻¹.

The koff is the first-order rate constant of dissociation. One may read the Kd as the constant that tells how readily two partners part at equilibrium. In general, kon refers to a measure of how fast the partners come together.

(Values after publication PMC8406658.)
